{
  "source": "paper PMC2932715",
  "key": {"[1]": {"target": "hemagglutinin (HA) ectodomain from A/New York/107/2003 (H7N2) (influenza A virus A/New York/107/2003 (H7N2))", "assay": "crystal structure"}, "[2]": {"target": "hemagglutinin (HA) ectodomain from A/New York/107/2003 (H7N2) (influenza A virus A/New York/107/2003 (H7N2))", "assay": "SEC"}},
  "data": [
    {"substance": "hemagglutinin (HA) ectodomain from A/New York/107/2003 (H7N2) (natural protein)", "values": [
      {"measurement": "stoichiometry N", "setting": "[1]", "result": 3},
      {"measurement": "stoichiometry N", "setting": "[2]", "result": 3}
    ]}
  ]
}
